Results published in patent US10357549B2, “Pigment epithelium-derived factor (PEDF) and peptide derivatives thereof for use in osteoblast differentiation and bone growth” (Yale University, priority 2014, dated 2019).
Blank lines part the entries; values can stand above or below the molecule they belong to.

Columns and labels:
[1] = system: β-catenin; assay: Active β-catenin and mature osteoblast gene expression in hMSC cultures with Wnt3a and PEDF peptides; format: cell-based, human
Protocol: Experiments were conducted to evaluate the effect of Wnt3a and PEDF-derived peptides on β-catenin, a transcriptional regulator of osteoblast differentiation. Cultures incubated in 50 ng/ml Wnt3a alone or in combination with 100 nM PEDF-derived peptides.

[2] = system: PEDF knock-out mice; assay: PEDF i.p. treatment of young and old PEDF KO mice, trabecular bone; format: in vivo, mouse; details: young (200 ng i.p. every third day, two weeks) and old (25 μg/kg i.p. every third day, 4 weeks) PEDF KO mice
Excerpt: A ScanCo μCT 35 scanner (ScanCo Medical AG, Brüttisellen, Switzerland; Yale Center Core for Musculoskeletal Disorders) was used to assess the distal femur for trabecular and cortical bone morphology from 21-d-old WT and PEDF-KO mice in a blinded manner. Axial, sagittal, and coronal images were obtained at standardized sites, and measures of trabecular and total bone volumes and other parameters of bone density were obtained (Bouxsein et al., 2010, J Bone Miner Res, 25: 1468-1486). For histology, femurs and tibiae of 14- and 26-d-old mice were dissected, cleaned, and fixed in 70% ethanol, then further dehydrated through graded ethanols, cleared in toluene, and embedded in methyl methacrylate (MMA). After polymerization, MMA blocks were removed from the mold, cut to size, sanded, and polished on a Buehler Metasery (Buehler, Lake Bluff, Ill., USA). Longitudinal sections of […] were cut using a Reichert-Jung RM 2165 microtome (Leica Microsystems, Jena, Germany) using a D-profile tungsten carbide knife, mounted on charged slides, and stained with either Goldner's trichrome or Toluidine Blue O (pH 3.7).
Experiments were conducted to examine the effects of PEDF treatment on bone in young (44 days) and old (6 month) PEDF knock-out mice. PEDF (200 ng) was delivered i.p. every third day for two weeks in young mice. […]

[3] = system: 3T3-L1 adipocyte precursors; assay: PPARγ expression in 3T3-L1 adipocyte precursors with vector or LRP6 shRNA; format: cell-based, mouse; details: PEDF 10 nM, 48 h
Protocol: (§1) Immunoblotting was performed as described previously (Schmitz et al., 2011, Am J Pathol, 179: 2990-2999). Proteins were separated by 10% SDS-PAGE on gradient gels (Bio-Rad, Hercules, Calif., USA). Antibodies against nonphosphorylated β-catenin, total β-catenin, phospho-LRP6 (serine 1490), total LRP6 (Cell Signaling Technologies, Danvers, Mass., USA), and alkaline phosphatase (Developmental Studies Hybridoma Bank, University of Iowa, Iowa City, Iowa, USA). To assess signaling through the Wnt coreceptor LRP6, 3T3 adipocyte precursors with vector and LRP6-KO shRNA were used (Liu et al., 2012, J Biol Chem, 287: 7213-7223). On confluence, cells were serum starved for 48 h, and then changed to DMEM with 10% FCS (d 0). PEDF (10 nM) was added on d 0, and cells were harvested after 48 h. Knockdown was confirmed by immunoblotting for total LRP6. β-actin (Sigma) was used as a loading control.

[4] = system: hMSCs; assay: Osteoblast differentiation of hMSCs (alkaline phosphatase); format: cell-based, human; details: PEDF added to hMSCs
Protocol: (§2) Adipose-derived hMSCs [American Type Culture Collection (ATCC), Manasses, Va., USA; PCS-500-011) were propagated in MSC basal medium supplemented with MSC growth kit (ATCC). Cells were CD29, CD44, CD105, and CD166 positive and negative for CD 31, CD34, and CD45. Interrogation of Wnt-β-catenin signaling was done in ATCC MSC basal medium with 2% FBS. PEDF (500 ng/ml) was added for 6 h. Passage 2 and 3 hMSCs were used for Wnt signaling experiments. For adipocyte conversion, cells (5000 cells/cm^2) were placed in adipocyte differentiation medium (ATCC; PCS-500-050) for 9-10 d. For osteoblast differentiation, cells (5000 cells/cm^2) were differentiated in osteoblast differentiation medium (ATCC; PCS-500-052) for 10-21 d. Alkaline phosphatase kit (Sigma) was used to stain osteoblasts.
Immunoblotting was performed as described previously (Schmitz et al., 2011, Am J Pathol, 179: 2990-2999). Proteins were separated by 10% SDS-PAGE on gradient gels (Bio-Rad, Hercules, Calif., USA). Antibodies against nonphosphorylated β-catenin, total β-catenin, phospho-LRP6 (serine 1490), total LRP6 (Cell Signaling Technologies, Danvers, Mass., USA), and alkaline phosphatase (Developmental Studies Hybridoma Bank, University of Iowa, Iowa City, Iowa, USA). […]

[5] = system: MSCs derived from stromovascular cells (SVCs); assay: Adipogenic differentiation of murine MSCs derived from stromovascular cells (Oil Red O, qRT-PCR); format: cell-based, mouse
Protocol: (§3) Subcutaneous fat pads were dissected from WT and PEDF-KO mice and digested in HBSS medium containing 3% BSA (American Bioanalytical, Natick, Mass., USA), 0.8 mg/ml of type 2 collagenase (Worthington Biochemical Corp., Lakewood, N.J., USA), 1.2 mM CaCl2, and 1.0 mM MgCl2 for 1 h and 15 min in a shaking 37° C. water bath. Stromovascular fractions (SVFs) were obtained after centrifugation at 300 g for 5 min. Cells were initially plated in proliferation medium (DMEM plus 10% FBS and bFGF; 1 ng/ml) until 70-80% confluence. Adipogenic differentiation was initiated with differentiation medium (5 μg/ml insulin, 10 nM dexamethasone, 0.5 mM IBMX, and 1 μM rosiglitazone) and added on d 0 for 72 h. Afterward, cells were maintained in DMEM with 10% FBS and 5 μg/ml insulin for an additional 5 d until full differentiation as confirmed by light microscopy and Oil Red O staining. Osteoblast differentiation cocktail (10 nM dexamethasone, 50 μg/ml ascorbic acid, and 10 mM β-glycerophosphate) was used for 21 d.
(§4) RNA was isolated and processed using the RNAEasy mini kit (Qiagen, Valencia, Calif., USA). Primer probe sets were obtained from a commercial source (Applied Biosystems, Foster City, Calif., USA), and qRT-PCR was performed on a TaqMan ABI 7500 system (Applied Biosystems) as described previously (Schmitz et al., 2011, Am J Pathol, 179: 2990-2999). Target gene expression was normalized against 18S ribosomal RNA using the ΔΔCt method. On sorted adipose populations, qRT-PCR was performed on a Roche Lightcycler 480 (Roche, Basel, Switzerland) using a SYBR FAST qPCR kit (Kapa Biosystems, Woburn, Mass., USA; KK4611), and target gene expression was normalized to TBK1.
(§5) For Oil Red O staining, cells were washed in PBS and fixed in 10% formalin for 20 min. Cells were then stained with 0.5% Oil Red O for 15 min. For Alizarin Red staining, cells were washed in PBS and fixed in 10% formalin for 20 min. After being washed twice in ddH2O, cells were stained in 2% Alizarin Red S (pH 4.1). Cells were washed ≥3 times in ddH2O, and images were acquired with a Zeiss Axiophot microscope (Carl Zeiss, Oberkochen, Germany). Representative images are shown at ×40 view.

[6] = system: Wnt cell surface receptor LRP6; assay: Canonical Wnt-β-catenin signaling in hMSCs (immunoblot of phospho-LRP6 and active β-catenin); format: cell-based, human; details: for LRP6 phosphorylation: hMSCs, Wnt3a 50 ng/ml, PEDF 500 ng/ml
Protocol: The inhibitor of Wnt production (IWP-2; Tocris Bioscience, Minneapolis, Minn., USA; 2 μM×24-48 h) was used to block production of endogenous Wnt proteins (Chen et al., 2009, Nat Chem Biol, 5: 100-107; Clevers et al., 2012, Cell, 149: 1192-1205). All other chemicals, unless indicated, were purchased from Sigma (St. Louis, Mo., USA).
as §2, §1

[7] = system: hMSCs; assay: Adipogenic differentiation of human MSCs; format: cell-based; details: PEDF started on day 0, adipogenic medium 10 days
Protocol: as §2
RNA was isolated and processed using the RNAEasy mini kit (Qiagen, Valencia, Calif., USA). Primer probe sets were obtained from a commercial source (Applied Biosystems, Foster City, Calif., USA), and qRT-PCR was performed on a TaqMan ABI 7500 system (Applied Biosystems) as described previously (Schmitz et al., 2011, Am J Pathol, 179: 2990-2999). Target gene expression was normalized against 18S ribosomal RNA using the ΔΔCt method. […]

[8] = system: SVCs from PEDF KO mice; assay: Osteoblast differentiation and mineralization of PEDF KO SVCs (Alizarin Red, qRT-PCR); format: cell-based, mouse
Protocol: as §3, §4, §5

[9] = system: femurs in PEDF KO mice; assay: Biomechanical testing of femurs of vehicle and PEDF treated PEDF KO mice; format: in vivo, mouse; details: versus vehicle
Excerpt: Further experiments were done to compare the biomechanical properties of PEDF-treated and vehicle-treated bones. […] Femur length was not different between vehicle or PEDF-treated groups. PEDF increased bone stiffness, the slope of the load applied to the bone vs displacement of bone. Maximum load was not different in PEDF-treated mice. The deformation of bone after the yield point, a measure of bone ductility increased after PEDF treatment. Displacement of femurs at maximum load and at fracture (Fx) point increased after PEDF treatment, indicating bones that are less brittle with force applied.

[10] = system: hMSCs; assay: Mineralization of hMSCs under continuous Wnt3a (Alizarin red, 21 days); format: cell-based, human; details: Wnt3a 50 ng/ml continuous, 21-day-old hMSC cultures
Protocol: Experiments were conducted to evaluate the effect of PEDF-derived peptides on the mineralization of hMSCs. […] For “late” groups, PEDF 34-mer was added only during the last 8 days of the differentiation protocol. Mineralization was assessed by Alizarin red staining (FIG. 14C).

[11] = PEDF started on day 3, both WT and KO SVCs
[12] = PEDF 500 ng/ml added to IWP-2-treated hMSCs
[13] = osteoblast differentiation, KO SVCs, day 21

Molecule: DPFFKVPVNKLAAAVSNFGYDLYRVRSSTSPTTN [PEDF 34-mer, PEDF-derived 34-mer peptide]
levels of active β-catenin ([1]; 100 nM peptide with 50 ng/ml Wnt3a): increases the levels of active β-catenin

alkaline phosphatase by staining and protein levels [4]: increased alkaline phosphatase
B1: Pigment epithelium-derived factor (protein)
chain: QNPASPPEEGSPDPDSTGALVEEEDPFFKVPVNKLAAAVSNFGYDLYRVRSSTSPTTNVLLSPLSVATALSALSLGAEQRTESIIHRALYYDLISSPDIHGTYKELLDTVTAPQKNLKSASRIVFEKKLRIKSSFVAPLEKSYGTRPRVLTGNPRLDLQEINNWVQAQMKGKLARSTKEIPDEISILLLGVAHFKGQWVTKFDSRKTSLEDFYLDEERTVRVPMMSDPKAVLRYGLDSDLSCKIAQLPLTGSMSIIFFLPLKVTQNLTLIEESLTSEFIHDIDRELKTVQAVLTVPKLKLSYEGEVTKSLQEMKLQSLFDSPDFSKITGKPIKLTQVEHRAGFEWNEDGAGTTPSPGLQPAHLTFPLDYHLNQPFIFVLRDTDTGALLFIGKILDPRGP
notes: Full-length recombinant human PEDF generated in HEK cells; 50-kDa secreted protein of the SERPIN superfamily
trabecular bone volume (BV) [2]: increases
trabecular thickness [2]: increases
PPARγ expression in cells with LRP6 knockdown [3]: induced PPARγ expression
PPARγ expression in control (vector) cells [3]: significantly inhibited PPARγ expression
PPARγ suppression, day 1 versus day 3 start ([5]; PEDF 500 ng/ml): greater when PEDF was started on day 1 compared with day 3
adipogenesis (Oil Red O staining) ([5]; PEDF 500 ng/ml added on day 1 or day 3, assessed day 8): significantly inhibited adipogenesis
expression of PPARγ, PGC1α, CEBPα and adipocyte marker ADIPOQ ([5]; PEDF 500 ng/ml started on day 1 or day 3): suppression
inhibition of PGC1α expression [5, 11]: ~50%
inhibition of PPARγ expression [5, 11]: ~50%
suppression of PPARγ, adiponectin, and other adipocyte markers ([5]; compared with control-treated cells, P<0.001): ~90%
LRP6 phosphorylation in IWP-2-treated cells [6, 12]: led to LRP6 phosphorylation
active β-catenin in IWP-2-treated cells [6, 12]: enhanced levels of active β-catenin
LRP6 phosphorylation [6]: increased LRP6 phosphorylation
active β-catenin levels ([6]; medium conditions where endogenous Wnt proteins would be present): only minimal effects
adipogenesis of hMSCs [7]: inhibits adipogenesis
proadipogenic transcription factors in hMSCs [7]: inhibited proadipogenic transcription factors
Alizarin Red staining (mineralization) ([8]; PEDF treatment for 21 days, KO SVCs, versus vehicle-treated cells): increased Alizarin Red staining
Collagen Ia expression ([8]; day 21 of differentiation): not different
Runx2 expression ([8]; day 21 of differentiation): did not affect
Sp7 expression ([8]; day 21 of differentiation): did not affect
reduction of PPARγ expression [8, 13]: ~80%
transforming growth factor β (TGF-β) expression [8, 13]: reduced the expression
bone stiffness (slope of load vs displacement) [9]: increased
deformation of bone after the yield point (bone ductility) [9]: increased
displacement of femurs at fracture (Fx) point [9]: increased
displacement of femurs at maximum load [9]: increased
femur length [9]: not different
flexibility of femurs [9]: enhances the flexibility
maximum load [9]: not different

B2: Wnt3a (protein, UniProt P56704 19-352, looked up)
Protein Wnt-3a: SYPIWWSLAVGPQYSSLGSQPILCASIPGLVPKQLRFCRNYVEIMPSVAEGIKIGIQECQHQFRGRRWNCTTVHDSLAIFGPVLDKATRESAFVHAIASAGVAFAVTRSCAEGTAAICGCSSRHQGSPGKGWKWGGCSEDIEFGGMVSREFADARENRPDARSAMNRHNNEAGRQAIASHMHLKCKCHGLSGSCEVKTCWWSQPDFRAIGDFLKDKYDSASEMVVEKHRESRGWVETLRPRYTYFKVPTERDLVYYEASPNFCEPNPETGSFGTRDRTCNVSSHGIDGCDLLCCGRGHNARAERRREKCRCVFHWCCYVSCQECTRVYDVHTCK
notes: prototypical Wnt agonist ligand
LRP6 phosphorylation [6]: increased LRP6 phosphorylation
mineralization (Alizarin red) with continuous Wnt3a versus controls [10]: diminished mineralization
active β-catenin under unopposed and continuous Wnt3a ([1]; 50 ng/ml Wnt3a alone): suppresses active β-catenin
